Results as given in PMC2553845 (2008).
Where no end group is shown, it is not given here.

T1: SCRIB PDZ domain 2 (human, UniProt Q14160 862-950)
T1 chain: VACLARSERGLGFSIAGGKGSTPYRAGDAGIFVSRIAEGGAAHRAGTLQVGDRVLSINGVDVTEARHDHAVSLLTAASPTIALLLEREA

T2: SCRIB PDZ domain 3 (human, UniProt Q14160 1004-1093)
T2 chain: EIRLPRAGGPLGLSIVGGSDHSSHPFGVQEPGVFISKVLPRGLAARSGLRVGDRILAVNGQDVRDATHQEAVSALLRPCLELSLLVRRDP


Tests used:
Test in all cases: ELISA
SCRIB PDZ domain 2 = molecular target: T1, SCRIB PDZ domain 2
SCRIB PDZ domain 1 = SCRIB PDZ domain 1 (human, UniProt Q14160 728-815)
SCRIB PDZ domain 3 = molecular target: T2, SCRIB PDZ domain 3

Sequence of SCRIB PDZ domain 1 (Q14160 728-815): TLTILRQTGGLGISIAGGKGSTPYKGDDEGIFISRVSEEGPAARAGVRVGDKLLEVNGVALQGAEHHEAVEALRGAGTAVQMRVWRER

Row | Binder | IC50 (SCRIB PDZ domain 2) [µM] | IC50 (SCRIB PDZ domain 1) [µM] | IC50 (SCRIB PDZ domain 3) [µM]
1 | KHFRETEV (not fully specified) [peptide 2, C terminus of the HTLV-1 Tax protein] | 5.2 | 3.4 | 58
2 | RQIKIWFQNRRMKWKKRSWFETWV (not fully specified) [designed SCRIB PDZ-binding peptide Π-RSWFETWV (peptide 14)] | 4.7 | 2.2 | 3.9
